Measurements: the PETadex activity labels

B1: unnamed (protein)
chain: MHQGIHMERKNIRRRWAIGLLGMLVLAASAHAQTNPHQKGPDPTSASLNATSGSFSVATSSVSSLGAVGFGGGTVYYPTTTGTYAVLAICPGFTATQSSIAWLGRRIATHGFVVITIDTNSTLDQPPSRATQLMAALNYVTNSSSATVRSRVDASRRGVAGHSMGGGGTLYAARDNPSLKAAVPLTAWSTLKSFSSVQVPTLVVGAESDSIASVSSHSIPFYNSLSTSLDKAYAELNGATHFAPNSTNTPIGRYSVSWVKRFMDNDTRYTPFLCGAPHQSYATSLVFSDYRSTCPY
B2: unnamed (protein)
chain: MKNTAFRKVSVVAVTFLLSVTAFAGGGGGGGGDNSGALPLPDTCNSNCGYELGPNPSLSFVQANRGPQPTTTTNVSSSVDGFGGGTIYYPTNISQEMAAISIAPGFTNTQSAVAWWGPVLASHGFVVITIDTNGRFDQPESRSRQLDAALNHLISESDRSSSPISGLVDRNRLATMGFSMGGGGSLRSASRNRLSAAVPLAPWSVGGNNFNQIGVPTMIMACENDGTAGINQHARPFYNAIPGSTDKVYLEINDGPHNCANGNNINNATLSTYGVSWMKRFLDKDRRFNQFLCGPNHEANSRISQFRDTCLF
B3: unnamed (protein)
chain: MKIKNRTACTTAAPSPARRRLAMASLAAAGLLCSFTAQAQVAVFQENFTSGLGSFTAAGSATNSSGAARLAGCYGCTDGAITSGPISTVGFSSLSLSFDRVTSGLDIGEGGIAEYSTNGSTWTALETTRATSNGRVTFNLPAAAAGQTGLRLRFRIDANLSSETYTVDNIQLTGISGDGGGTNPHAKGPAPTASLLEASTGPFTYASTNVSSLSADGYGGATIFHPTNVAGPFAAIAISPGYTGTKSTMTWWGERLASHGFVVAVIDTNSIYDQPYQRAPQLMAALRQLVTFSNTSSHPIYRKVDPNRLGVMGHSMGGGGTLIAARDNPTLKAAIPLAPWNTSTNFSSVSVPTLVVACESDSIAPVNSHASPFYNSLPSSTRKAFMEMNNGDHFCVMNGNDFTRIMGKYGVAWMKRFLDNDTRYSPFLCGAQHQADLSNSQLSEYRENCPY
B4: unnamed (protein)
chain: MRETSLHRSPAPALAQACTRAASRLRFAALGLAAGLLSLAAQAQINPDQRGPNPTAASLEATAGPYAVKTSKVASQSNFGGGTVYFPDSNEGPFGVIAIAPGFTEGQSVNSWWGNRLASHGFVVITASMKNVLQYPTPRAKELVAALNYVVAQSQTSGSPYFGKVDPARRGVMGHSMGGGGTLEVVRDDPTIKAAIPLAPWDLSKVFTQVTTPTLIVACEKDAIAPVNTHASTFYDSLSASLDKAFLELKGADHFCTNTSTTAARKTVLGKYGVAWMKRFIDSDTRYAPFLCGATHEAYLSASSSVISRYKSSCPY
B5: unnamed (protein)
chain: MEMFVVPKINITFNEVAVMPSSIPVKILTGVCSLLFSVSAFSFTPSPDPDPDPGPGPCQEDCDFTRGPNPTSNYLEASSGPYNVSTIGVSRSVSGFGGGTVHYPQGTTGTMGAIAIVPGFLAGESSIAWWGPRLASHGFVVITIATNSTFDQPGSRSTQLGRALDYVINLSNSSSSPISGMVDSTRVAAMGWSMGGGGTLRLASGGRLSAAIPLAPWNTGSNSFNQITTPTLILACENDSTAPVSVHASPFYNRIPSSTDKAYLEINNGSHSCANGGGANGGLLGKYGVSWMKRFIDDDARYSQFLCGPNHQANSAISEYRDTCNY
B6: unnamed (protein)
chain: MKTTVSRIKGLSVAAAMALASLATPALSQTSAPTSASLNATSGPLSVSTASVLLPVGFGGGTIYYPTVAGKYGVIAISPGFTATQSSIAWLGRRIATHGFVVITMNTITTLDQPDSRATQLMAALRYVLNSSGTAVRARIDSTRLAVAGHSMGGGGSLIAARDNPTLKASYPMTPWNLSTNFSTVRVPTMIIGADGDTIAPVAVHARPFYASLPSSTYKAYGELNNGTHFSPNSTNTPIGRYAVAWMKRFVDGDTRYSPFLCGAEHAAYATGWVFDRYNQNCPY
B7: unnamed (protein)
chain: MKTIERGQRRCAVGLGLLLLAAAAHAQTNPLAKGPDPTSALLNANAGPFAIASTAVPSSVAGFGGGTVYYPTAAGSYATVAICPGFTATQSSIAWIGQRMASHGFVAMTINTNSTFDQPPSRATQLMAALRYLTNSSNSTVRARVDASRLGVAGHSMGGGGTLMAARDNTTLKAAVPLTPWSQTKSFSTVRVPTLVVGAENDTVAPVAQHSIPFYTSLPASLDKAYAELNNASHFAPNSTNTAIGRYSVAWVKRFMDNDTRYEPFLCGAPHTAFATPTVFSDYRSTCPYQ

substrate: BHET; details: 120 h

Protein	plate clearing
B1	not clears the plate
B2	not clears the plate
B3	clears the plate (z > 3 vs empty vector)
B4	not clears the plate
B5	not clears the plate
B6	not clears the plate
B7	not clears the plate
